Data as given in US20150072922A1, “RNASE 7 ANTIMICROBIAL PEPTIDES” (THE RESEARCH INSTITUTE AT NATIONWIDE CHILDREN'S HOSPITAL, priority 2012, published 2015).
“Also recorded” adds a separate entry of the source. Marks after values point to notes of the source that are not given here. No end group written: not given here. *: point of attachment. His tag = six-residue histidine tag at the N-terminus, N[C@@H](Cc1c[nH]cn1)C(=O)N[C@@H](Cc1c[nH]cn1)C(=O)N[C@@H](Cc1c[nH]cn1)C(=O)N[C@@H](Cc1c[nH]cn1)C(=O)N[C@@H](Cc1c[nH]cn1)C(=O)N[C@@H](Cc1c[nH]cn1)C(=O)*

Tests used:
Escherichia coli (UTI89) [1] = test: Antimicrobial kill (microdilution) assay, MIC/MBC by CFU count; type: cell-based; settings: for MIC/MBC fold higher than full-length protein, E. coli: compared to full-length RNase 7; for E. coli MIC: lowest concentration that inhibits the growth of 90% of the inoculation; for E. coli MIC / E. coli MBC: 3 hours, 0.1×PBS; for E. coli MBC: minimum bactericidal concentration; for antimicrobial activity against E. coli (in words): MIC/MBC based, mostly compared to full-length RNase 7
Method: (§1) The antimicrobial activity of RNase 7 and its fragments was estimated using a microdilution assay. Briefly, test bacteria (10^5) were incubated with several concentrations of RNase 7 and each fragment in 50 μl 0.1×PBS buffer for 3 hours in a 37° C. incubator. Each reaction was plated on the appropriate medium and grew overnight at 37° C. The antimicrobial activity was determined by the number of colony-forming units (CFUs) the following day. The minimum inhibition concentration (MIC) is defined as the lowest concentration that inhibits the growth of 90% of the inoculation and the minimum bactericidal concentration (MB C) is defined as the lowest concentration at which less than 99.99% of the initial inoculum is viable.
(§2) Antimicrobial activities of the recombinant peptides were estimated with a microdilution assay. Briefly, the test bacteria (10^4 CFUs) were incubated with various concentrations of RNase 7 and each fragment in 50 ul 0.1×PBS buffer for 3 hours at 37° C. After incubation on Agar plates overnight at 37° C., the number of colony-forming units (CFUs) at each peptide concentration was determined. Using untreated bacterial aliquots as baseline, the minimum inhibition concentration (MIC) was defined as the lowest concentration that inhibits the growth of 90% of the inoculation, and the minimum bactericidal concentration (MBC) was defined as the lowest concentration at which less than 99.99% of the initial inoculum is viable.

[2] = test system: Staphylococcus saprophyticus (ATCC 15305); test: as above; type: cell-based; settings: for MIC/MBC fold higher than full-length protein, S. saprophyticus: compared to full-length RNase 7; for S. saprophyticus MIC: lowest concentration that inhibits the growth of 90% of the inoculation; for S. saprophyticus MIC / S. saprophyticus MBC: 3 hours, 0.1×PBS; for S. saprophyticus MBC: minimum bactericidal concentration
Method: as §1, §2

[3] = test system: Proteus mirabilis (ATCC 7002); test: as above; type: cell-based; settings: 3 hours, 0.1×PBS; for P. mirabilis MIC: lowest concentration that inhibits the growth of 90% of the inoculation; for P. mirabilis MBC: minimum bactericidal concentration
Method: Uropathogenic Escherichia coli (UTI89) was grown in Luria broth (LB) medium and plated on LB-agar. Uropathogenic Staphylococcus saprophyticus (ATCC 15305) was grown in LB and plated on Trypticase Soy Agar with 5% sheep blood (Fisher Scientific, Pittsburgh, Pa., USA). Uropathogenic Proteus mirabilis (ATCC 7002) was grown in LB and plated on MacConkey II Agar (Fisher Scientific, Pittsburgh, Pa., USA). These organisms were chosen as the primary organisms that account for a majority of Gram-negative and Gram-positive urinary tract infections (UTI). Anti-RNase 7 antibody was generated in rabbit with recombinant human RNase 7 (Biomatik, Wilmington, Del., USA)
as §2

Escherichia coli (UTI89) [4] = test: SYTOX Green bacterial cell death / membrane permeabilization assay; type: cell-based; settings: 3 hours, FIG. 1, compared to full-length
Method: (§3) Assays of the permeabilization of bacterial membrane were performed with SYTOX green nucleic acid stain (Invitrogen™). The overnight cultures of bacteria were centrifuged at 5000 rpm for 5 min, the pellets were then washed with water and resuspended in water with an OD=0.5. 90 μl of each bacteria were then incubated with 10 μl of peptides with different concentrations for 3 hours at 37° C. in a 96-well plate. 100 μl of 2 μM SYTOX Green (Invitrogen™) were then added to each well and incubated in dark for 15 min. SYTOX green penetrates cells with compromised membranes not the membranes of live cells. The increase of fluorescence was measured using […] filters for excitation and emission wavelengths, respectively. Bacteria alone and bacteria treated with 70% ethanol were used as controls and the fluorescence from each was recorded as Fmin and Fmax. The percentage of cell death at each concentration for each fragment was calculated as below: death %=(F−Fmin)/(Finax−Fmin)*100%
(§4) To confirm the accuracy of our MIC/MBC data, cell death assays using SYTOX Green (Invitrogen), which selectivity labels nucleic acids of cells with compromised membranes of dead/dying cells were performed. Overnight cultures of bacteria were centrifuged at 5000 rpm for 5 minutes. Pellets were then washed with PBS (pH 7.4) and resuspended in PBS to an OD600 of 0.5 for Escherichia coli (UTI89) and OD600 of 0.8 for Staphylococcus saprophyticus. Per manufacturerer's instructions, 90 μl of each bacteria strain were incubated with 100 μl of 2 uM SYTOX Green for 15 minutes. Ten microliters of peptides at various concentrations were added for 3 hours at 37° C. in a 96-well plate. Compromised bacterial membranes of dead/dying cells will be labeled while lives cells are not labeled as noted by Invitrogen. Fluorescence was measured using 485 and 520-nm filters for excitation and emission wavelengths, respectively. Untreated bacteria were used as a 100% live control, and fluorescence was noted as Fmin. To elicit complete killing, bacteria were treated with 70% ethanol for 1 hour. This experimental group's fluorescence was noted as Fmax. The percentage of cell death at each concentration for each fragment was calculated as (Ffragment−Fmin)/(Fmax−Fmin)×100%.

[5] = test system: Staphylococcus saprophyticus; test: as above; type: cell-based; settings: 3 hours, FIG. 2, compared to full-length
Method: as §3, §4

uropathogenic E. coli = test: RNase7 antibacterial activity, MIC on strains isolated from positive urine cultures; type: cell-based, Escherichia coli; settings: uropathogenic E. coli isolated from urine cultures (N=3)
Source text: Laboratory bacterial strains from the American Type Culture Collection (ATCC, Manassas, Va.) and strains isolated from positive urine cultures were obtained from the Microbiology Laboratory at Nationwide Children's Hospital.

Molecule	MIC/MBC fold higher than full-length protein, E. coli (Escherichia coli (UTI89) [1])	E. coli MIC (Escherichia coli (UTI89) [1])	E. coli MBC (Escherichia coli (UTI89) [1])	MIC/MBC fold higher than full-length protein, S. saprophyticus [2]	S. saprophyticus MIC [2]	S. saprophyticus MBC [2]	P. mirabilis MIC [3]	P. mirabilis MBC [3]	membrane permeabilization and death, E. coli (in words) (Escherichia coli (UTI89) [4])	membrane permeabilization and death, S. saprophyticus (in words) [5]	MBC against E. coli (Escherichia coli (UTI89) [1])	MIC against E. coli (Escherichia coli (UTI89) [1])	antimicrobial activity against E. coli (in words) (Escherichia coli (UTI89) [1])	antimicrobial activity against E. coli (in words) (Escherichia coli (UTI89) [1]; listed as 1-71)	antimicrobial activity against S. saprophyticus (in words) ([2]; MIC/MBC based, mostly compared to full-length RNase 7)	mean inhibitory concentration (MIC) (uropathogenic E. coli)
F:46-97: recombinant middle RNase 7 fragment, amino acids 46 to 97, beta sheets 2-4, N-terminal His tag ({His tag}-EPFSSVAATCQTPKIACKNGDKNCHQSHGPVSLTMCKLTSGKYPNCRYKEKR; ends and bridges not checked)	two-fold higher	0.88 µM	1.75 µM	two-fold higher	0.44 µM	1.75 µM	3.5 µM	>3.5** uM	enhanced permeabilization and death compared to the full-length protein; also recorded: potent membrane penetrating activity	no activity compared to full length protein; also recorded: negligible activity against S. saprophyticus						
F:30-97: recombinant middle RNase 7 fragment, amino acids 30 to 97, first four beta sheets, N-terminal His tag (protein, ends and bridges not checked, recombinant middle RNase 7 fragment, amino acids 30 to 97, first four beta sheets, N-terminal His tag) {His tag}-INKHTKRCKDLNTFLHEPFSSVAATCQTPKIACKNGDKNCHQSHGPVSLTMCKLTSGKYPNCRYKEKR	two-fold higher	0.44 µM	0.88 µM	two-fold higher	0.44 µM	1.75* uM	>3.5** uM	>3.5** uM	less activity when compared with full-length RNase 7	less activity when compared with full-length RNase 7						
F:1-71: recombinant N-terminal RNase 7 fragment, amino acids 1 to 71 (SEQ ID NO: 3), N-terminal His tag (protein, listed as Homo sapiens, N-terminal His tag) KPKGMTSSQWFKIQHMQPSPQACNSAMKNINKHTKRCKDLNTFLHEPFSSVAATCQTPKIACKNGDKNCHQ	seven-fold higher	1.93** uM	3.86 µM		0.23 µM	>0.92* uM	.44 µM	.88 µM	lower permeability against E. coli	shows permeability against S. Saprophyticus	3.86 µM	1.93 µM	lower activity against E. coli; also recorded: markedly reduced activity against E. coli	least activity; also recorded: significantly decreased activity	shows antimicrobial activity against S. saprophyticus; also recorded: same activity to S. saprophyticus as full length protein	0.63 µM
